Reference: publication PMC11531485, “Examining prestructured β-actin peptides as substrates of histidine methyltransferase SETD3” (Scientific Reports, 2024)
Positions of bridges follow the written chain, without caps; N, C: chain ends. No end group written: not given here.

T1: human SETD3 histidine methyltransferase (human, UniProt Q86TU7 1-594)
T1 sequence (looked up): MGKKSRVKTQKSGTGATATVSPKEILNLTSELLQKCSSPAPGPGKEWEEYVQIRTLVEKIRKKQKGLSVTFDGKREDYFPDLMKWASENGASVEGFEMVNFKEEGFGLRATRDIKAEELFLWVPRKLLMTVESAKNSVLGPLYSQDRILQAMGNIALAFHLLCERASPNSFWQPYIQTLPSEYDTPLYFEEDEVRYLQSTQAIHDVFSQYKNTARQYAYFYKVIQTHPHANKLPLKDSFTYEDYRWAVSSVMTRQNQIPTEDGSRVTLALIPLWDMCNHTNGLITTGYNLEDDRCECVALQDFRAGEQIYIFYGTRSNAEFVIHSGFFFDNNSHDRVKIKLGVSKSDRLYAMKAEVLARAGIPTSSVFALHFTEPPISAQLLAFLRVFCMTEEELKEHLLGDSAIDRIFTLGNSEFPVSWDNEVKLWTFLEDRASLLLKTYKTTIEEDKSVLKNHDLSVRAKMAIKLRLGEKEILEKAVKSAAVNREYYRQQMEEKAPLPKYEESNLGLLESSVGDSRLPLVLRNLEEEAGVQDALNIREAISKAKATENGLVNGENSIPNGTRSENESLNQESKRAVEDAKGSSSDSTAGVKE


How the values were obtained:
[1] = target: T1, human SETD3 histidine methyltransferase; assay: cell-based or functional assay
[2] = target: T1, human SETD3 histidine methyltransferase; assay: ITC; βA peptides (700-850 µM) titrated into SETD3 (30 µM) preincubated with SAH (350 µM) for 1 h; 20 mM Tris, 200 mM NaCl, pH 8.0; MicroCal PEAQ-ITC; One Set of Sites model; settings: both partners purified
[3] = target: T1, human SETD3 histidine methyltransferase; assay: cell-based or functional assay; remark: listed apart in the source

Binder	kcat of SETD3-catalysed methylation, MALDI-TOF MS steady-state kinetics (200 nM SETD3, 100 µM SAM, pH 9.0, 37 °C) [1]	kcat/Km of SETD3-catalysed methylation, MALDI-TOF MS steady-state kinetics (200 nM SETD3, 100 µM SAM, pH 9.0, 37 °C) [1]	Kd [2]	IC50 of inhibition of SETD3-catalysed methylation of the βA-H73 peptide, MALDI-TOF MS single point assay (10 and 100 µM peptide, 360 nM SETD3, 100 µM SAM) [3]
TLKYPIEHGIVTNWDD-NH2 [linear β-actin peptide (βA-H73, natural sequence)]	148 min^-1	5.78 µM^-1min^-1	2.46 µM	–
TLKYPIEHGKVTNWDD-NH2 (lactam 7-10) [stapled βA peptide 9 (cyclic lactam, Glu72-Lys75)]	–	–	24 µM	> 100 µM
